Experimental findings from patent US20260022179A1 (CHINA MEDICAL UNIVERSITY, published 2026) are described below.

Experiment [1] has as its target T1, full-length human EphA10 expressed on NIH 3T3 cells (human, UniProt Q5JZY3 34-1008).
T1 construct: whole, on cells; also called full-length human EphA 10-expressing NIH 3T3 cells
T1 sequence (looked up): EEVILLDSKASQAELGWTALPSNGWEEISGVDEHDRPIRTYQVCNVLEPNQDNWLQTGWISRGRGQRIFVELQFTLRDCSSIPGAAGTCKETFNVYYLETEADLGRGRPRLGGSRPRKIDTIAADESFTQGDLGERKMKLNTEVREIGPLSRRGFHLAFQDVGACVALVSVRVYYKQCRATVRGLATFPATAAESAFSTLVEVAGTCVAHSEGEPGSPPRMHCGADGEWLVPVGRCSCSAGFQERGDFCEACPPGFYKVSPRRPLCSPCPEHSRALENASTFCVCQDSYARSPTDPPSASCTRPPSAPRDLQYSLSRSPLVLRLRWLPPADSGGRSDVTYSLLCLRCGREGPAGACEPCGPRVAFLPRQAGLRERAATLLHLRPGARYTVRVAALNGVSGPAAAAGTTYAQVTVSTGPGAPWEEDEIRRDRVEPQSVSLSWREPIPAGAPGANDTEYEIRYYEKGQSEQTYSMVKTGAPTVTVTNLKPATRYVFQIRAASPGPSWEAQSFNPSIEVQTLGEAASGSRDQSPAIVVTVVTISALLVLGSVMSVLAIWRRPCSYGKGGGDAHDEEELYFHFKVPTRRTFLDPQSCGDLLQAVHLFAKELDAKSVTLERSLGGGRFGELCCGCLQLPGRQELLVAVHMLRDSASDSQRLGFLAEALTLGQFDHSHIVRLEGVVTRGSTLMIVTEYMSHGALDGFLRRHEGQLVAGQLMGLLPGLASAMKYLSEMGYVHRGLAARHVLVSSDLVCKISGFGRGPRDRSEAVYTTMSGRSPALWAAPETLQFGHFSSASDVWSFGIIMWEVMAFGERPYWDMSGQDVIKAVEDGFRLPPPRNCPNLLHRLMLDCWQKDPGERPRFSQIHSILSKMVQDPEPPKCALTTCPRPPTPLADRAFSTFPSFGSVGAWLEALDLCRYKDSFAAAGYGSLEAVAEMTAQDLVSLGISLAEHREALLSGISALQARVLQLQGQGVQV
The experiment can be described thus: FACS on transfected NIH 3T3 cells. From the text: (§1) A human B cell-derived scFv phage display library (Creative BioLabs, USA) was used to pan against the recombinant human EphA10 extracellular domain protein (Glu34-Ala565), transcript variant 3, fused with DDK/His tag at C-terminal (Creative Biomart, USA, Catalog no. EPHA10-369H). Positive clones were screened using ELISA. A unique CMU #5 were identified by DNA sequencing. The binding specificity of the unique clones was confirmed by FACS using full-length human EphA 10-expressing NIH 3T3 cells.

In experiment [2] the target is T2, recombinant human EphA10 extracellular domain protein (Glu34-Ala565), transcript variant 3, fused with … (human, UniProt Q5JZY3 34-565).
T2 construct: range 34-565; Commercial protein used for panning and the screening ELISA; also called EPHA10-369H (Creative Biomart); not shown: C-terminal DDK/His tag
T2 sequence (looked up): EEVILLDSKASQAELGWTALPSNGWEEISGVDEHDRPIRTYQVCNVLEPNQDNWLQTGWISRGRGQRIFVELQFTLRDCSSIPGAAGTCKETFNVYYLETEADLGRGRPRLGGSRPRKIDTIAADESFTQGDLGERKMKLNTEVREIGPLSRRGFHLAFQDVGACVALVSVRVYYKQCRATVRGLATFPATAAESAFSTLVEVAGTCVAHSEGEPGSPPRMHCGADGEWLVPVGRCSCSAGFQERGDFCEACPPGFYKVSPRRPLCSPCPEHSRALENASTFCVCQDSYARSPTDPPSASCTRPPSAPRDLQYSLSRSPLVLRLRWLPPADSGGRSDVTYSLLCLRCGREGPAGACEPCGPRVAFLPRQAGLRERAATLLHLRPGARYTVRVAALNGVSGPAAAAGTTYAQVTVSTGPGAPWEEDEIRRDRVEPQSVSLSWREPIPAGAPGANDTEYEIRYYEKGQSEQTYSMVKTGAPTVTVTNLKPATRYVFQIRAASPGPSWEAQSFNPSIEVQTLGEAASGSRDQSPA
Nature of the experiment: ELISA screen of phage display clones after panning on the recombinant protein.
From the text: as §1

B1: CMU #5 scFv (clone from the human B cell-derived scFv phage display library) (scFv)
scFv: EVQLVQSGGGVVQPGGSLRLSCAASGFTFDDYAMHWVRQAPGKGLEWVAVISYDGSNKYYADSVKGRFTISRDNSKNTLYLQMNSLRAEDTAVYYCARDGLPAFDIWGKGTLVTVSSGGGGSGGGGSGGGGSEIVLTQSPATLSVSPGERAILSCRASQSVRSNLAWYQQKPGQPPRLVIYDASSRATGIPARFSGSGSGTDFTLTISSLEPEDFAAYYCQQYGSSQLTFGGGTKLEIKR
notes: This is the clone as screened after panning
Regarding B1, the binding result in experiment [1] and in experiment [2] was “binds” throughout.
